The values that follow come from PMC8615271, “Functional Interplay between P5 and PDI/ERp72 to Drive Protein Folding” (Biology, 2021).

The stoichiometry N is a count of units in the complex or per binding partner.

T1: ERp72 (human, UniProt P13667 25-645)
T1 construct: human ERp72, Glu25-Leu645, cloned into pET15b; source: E. coli BL21 (DE3), purified (Ni-NTA, thrombin digestion, RESOURCE Q, Superdex 200)
T1 sequence (looked up): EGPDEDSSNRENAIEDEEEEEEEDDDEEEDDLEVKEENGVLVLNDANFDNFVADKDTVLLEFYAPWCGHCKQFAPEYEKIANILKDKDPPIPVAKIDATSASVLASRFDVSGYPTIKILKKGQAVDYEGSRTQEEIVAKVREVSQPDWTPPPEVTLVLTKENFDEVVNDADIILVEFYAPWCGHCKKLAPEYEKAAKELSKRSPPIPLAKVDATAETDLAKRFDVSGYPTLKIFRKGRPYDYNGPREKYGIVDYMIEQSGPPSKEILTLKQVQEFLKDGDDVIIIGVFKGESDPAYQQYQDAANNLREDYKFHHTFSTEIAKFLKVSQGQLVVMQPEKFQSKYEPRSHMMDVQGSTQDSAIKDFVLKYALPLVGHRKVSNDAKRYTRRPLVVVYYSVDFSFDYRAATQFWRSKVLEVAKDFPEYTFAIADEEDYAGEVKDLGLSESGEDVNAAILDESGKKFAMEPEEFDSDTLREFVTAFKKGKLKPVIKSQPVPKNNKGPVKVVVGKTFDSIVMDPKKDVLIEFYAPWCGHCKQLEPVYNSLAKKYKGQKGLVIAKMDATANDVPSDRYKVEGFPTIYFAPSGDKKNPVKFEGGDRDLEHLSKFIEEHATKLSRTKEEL

T2: IRE1α LD (human, UniProt O75460 24-446)
T2 construct: human IRE1 (IRE1α LD), Ser24-Thr446, cloned into pGEX6p-1; It prints 'C-terminal GST', although pGEX6p-1 usually adds GST at the N-terminus; both tags were removed in any case; also called ER stress sensor IRE1; source: E. coli BL21 (DE3), purified (Glutathione Sepharose 4B, PreScission digestion, Ni-NTA, RESOURCE Q, Superdex 200); not shown: GST, C-terminal, cleaved
T2 sequence (looked up): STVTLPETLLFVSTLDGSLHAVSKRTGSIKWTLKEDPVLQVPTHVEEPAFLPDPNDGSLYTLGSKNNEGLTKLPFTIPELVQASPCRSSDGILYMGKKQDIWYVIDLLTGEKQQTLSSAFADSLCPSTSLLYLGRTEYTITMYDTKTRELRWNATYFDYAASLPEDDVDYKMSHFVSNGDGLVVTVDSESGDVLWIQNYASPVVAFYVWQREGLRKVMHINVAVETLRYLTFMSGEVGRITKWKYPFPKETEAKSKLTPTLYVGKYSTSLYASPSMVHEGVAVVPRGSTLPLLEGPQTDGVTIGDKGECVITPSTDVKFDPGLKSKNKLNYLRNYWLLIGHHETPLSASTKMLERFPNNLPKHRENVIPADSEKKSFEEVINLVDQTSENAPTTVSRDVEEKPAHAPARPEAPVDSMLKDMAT

B1: P5 (reduced form) (enzyme, human, UniProt Q15084 20-440, looked up)
chain: LYSSSDDVIELTPSNFNREVIQSDSLWLVEFYAPWCGHCQRLTPEWKKAATALKDVVKVGAVDADKHHSLGGQYGVQGFPTIKIFGSNKNRPEDYQGGRTGEAIVDAALSALRQLVKDRLGGRSGGYSSGKQGRSDSSSKKDVIELTDDSFDKNVLDSEDVWMVEFYAPWCGHCKNLEPEWAAAASEVKEQTKGKVKLAAVDATVNQVLASRYGIRGFPTIKIFQKGESPVDYDGGRTRSDIVSRALDLFSDNAPPPELLEIINEDIAKRTCEEHQLCVVAVLPHILDTGAAGRNSYLEVLLKLADKYKKKMWGWLWTEAGAQSELETALGIGGFGYPAMAAINARKMKFALLKGSFSEQGINEFLRELSFGRGSTAPVGGGAFPTIVEREPWDGRDGELPVEDDIDLSDVELDDLGKDEL
notes: human P5 (PDIA6), Lys20-Leu440, cloned into pET15b; Used reduced (10 mM dithiothreitol treatment during purification); this was not measured here; also called ERp5; PDIA6; source: E. coli BL21 (DE3), purified (Ni-NTA, thrombin digestion, RESOURCE Q, Superdex 200)
B2: ERp46 (enzyme)
chain: not shown
notes: human ERp46, Arg33-Leu432, cloned into pET15b; source: E. coli BL21 (DE3), purified (Ni-NTA, thrombin digestion, RESOURCE Q, Superdex 200)
B3: Catalytically-inactive P5 (Cys55/58/190/193Ala) mutant (enzyme, human, UniProt Q15084 20-440, looked up)
chain: B1 chain with C36A, C39A, C171A, C174A
notes: human P5 (PDIA6), Lys20-Leu440, with the four active-site cysteines changed to alanine; The limits are those stated for the human P5 gene in pET15b; also called mutated P5; source: E. coli BL21 (DE3), purified (Ni-NTA, thrombin digestion, RESOURCE Q, Superdex 200)

Conditions in all cases: both partners purified
Experiment [1] has as its target T3, PDI (human, UniProt P07237 18-508).
T3 construct: human PDI (P4HB), Asp18-Leu508, cloned into pET15b; also called protein disulfide isomerase; P4HB; source: E. coli BL21 (DE3), purified (Ni-NTA, thrombin digestion, RESOURCE Q, Superdex 200)
The experiment can be described thus: far-Western, overlay or dot blot; reduced purified prey proteins (from 40 µM stocks, 3 µL) dotted on nitrocellulose; blocked with 5% skim milk in TBST; incubated with 0.2 µM reduced P5 in 20 mM Tris-HCl pH 7.6, 150 mM NaCl, 0.05% Tween 20 at 4 °C for 3 h; bound P5 detected with anti-P5 antiserum.

In experiment [2] the target is T1, ERp72. The description is as above.
A further experiment has as its target T2, IRE1α LD. The experiment is described as above.
The target in the experiment “P5 (reduced form)” is B1. The description is as above.
Experiment [3] has as its target T3, PDI. The experiment can be described thus: ITC; 280 µM P5 Cys55/58/190/193Ala mutant in the syringe (50 mM HEPES pH 7.2, 150 mM NaCl) titrated into 40 µM PDI or ERp72 in the cell (50 mM HEPES pH 7.2); 30 °C; one set of sites model. In general terms: Isothermal titration calorimetry measures the heat released or taken up as one component is titrated into another.

Experiment [4] concerns the target T1, ERp72. The experiment is described as above.

Where a chain is given by its changes, count along the chain named.

T3 sequence (P07237 18-508): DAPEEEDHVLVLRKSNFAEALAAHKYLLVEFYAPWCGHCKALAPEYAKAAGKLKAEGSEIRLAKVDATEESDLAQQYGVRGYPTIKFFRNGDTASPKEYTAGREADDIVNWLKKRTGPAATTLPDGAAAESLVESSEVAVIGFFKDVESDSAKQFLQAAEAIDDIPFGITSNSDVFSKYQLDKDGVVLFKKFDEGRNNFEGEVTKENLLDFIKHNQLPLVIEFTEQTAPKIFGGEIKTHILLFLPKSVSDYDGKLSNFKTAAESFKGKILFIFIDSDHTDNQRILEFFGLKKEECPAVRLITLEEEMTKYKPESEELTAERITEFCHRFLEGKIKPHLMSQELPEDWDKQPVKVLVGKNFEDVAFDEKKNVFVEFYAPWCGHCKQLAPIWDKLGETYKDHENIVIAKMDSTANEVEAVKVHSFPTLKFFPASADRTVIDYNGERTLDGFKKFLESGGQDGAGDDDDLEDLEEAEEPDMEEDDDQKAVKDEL

On to B1, for which the binding result with PDI [1], with ERp72 [2] and with IRE1α LD was “binds” each time.
For the molecule B2, in the experiment with P5 (reduced form), the binding result is on record as “binds”.
Consider B3, for which, in the experiment with PDI [3], the dH is -4.4 ± 0.2 kcal/mol and the “stoichiometry N” value was determined as 0.1. Also, in the experiment with ERp72 [4], the dH was -10.7 ± 0.8 kcal/mol and the “stoichiometry N” value was 0.1.
